Assay results reported in the supplement of paper PMC10724198.
± gives the standard deviation of the averaged measurements.

Tested on: Saccharomyces cerevisiae
Assay: protein stability index of tFT-peptide fusion (C-terminal peptide) (PSI (0-1 scale)); higher = more stable (slower turnover)
Details: genetic background: wild type; temperature: 30 C
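Also: PSI is a weighted mean of sequencing reads over stability bins, variants kept only with over 10 reads, mCherry proximal and sfGFP distal, peptide attached via GGGS linker.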

PPPPPATRPSSL
protein stability index: 0.674 ± 0.018

PPPPPFLPPPRL
protein stability index: 0.749 ± 0.011

PPPPPGLAPPSP
protein stability index: 0.681 ± 0.011

PPPPPHRTPHPS
protein stability index: 0.727 ± 0.096

PPPPPLPLDYPP
protein stability index: 0.638 ± 0.025

PPPPPLPPRSCL
protein stability index: 0.703 ± 0.013

PPPPPLSPHSPP
protein stability index: 0.699 ± 0.023

PPPPPPALPEYQ
protein stability index: 0.708 ± 0.01

PPPPPPLAAPPS
protein stability index: 0.7098 ± 0.0053

PPPPPPLPHSPP
protein stability index: 0.647 ± 0.095

PPPPPPLPLLSI
protein stability index: 0.668 ± 0.038

PPPPPPLSSPFP
protein stability index: 0.643 ± 0.032

PPPPPPNPLPLP
protein stability index: 0.68 ± 0.032

PPPPPPPHSPLS
protein stability index: 0.685 ± 0.04

PPPPPPPLPLLP
protein stability index: 0.667 ± 0.036

PPPPPPPPLAPP
protein stability index: 0.694 ± 0.022

PPPPPPPPPPRA
protein stability index: 0.723 ± 0.035

PPPPPPPPPTFL
protein stability index: 0.708 ± 0.017

PPPPPPPPSLSP
protein stability index: 0.591 ± 0.047

PPPPPPPPTTVL
protein stability index: 0.709 ± 0.023

PPPPPPRPPLRP
protein stability index: 0.727 ± 0.012

PPPPPPVHPSSP
protein stability index: 0.728 ± 0.0081

PPPPPPVSPAAL
protein stability index: 0.69 ± 0.018

PPPPPRLTPPRL
protein stability index: 0.722 ± 0.09

PPPPPRPPPSSP
protein stability index: 0.746 ± 0.058

PPPPPRPSPHPP
protein stability index: 0.62 ± 0.058

PPPPPSPSASSP
protein stability index: 0.491 ± 0.11

PPPPPSPSPCLA
protein stability index: 0.767 ± 0.044

PPPPPTAPPPSR
protein stability index: 0.733 ± 0.055

PPPPPTRPPTRV
protein stability index: 0.68 ± 0.079

PPPPRAPVPLPV
protein stability index: 0.575 ± 0.022

PPPPRLPLDPPL
protein stability index: 0.658 ± 0.041

PPPPSPPATPAP
protein stability index: 0.652 ± 0.015

PPPPSPPLHRPP
protein stability index: 0.738 ± 0.016

PPPPSPPPPSTT
protein stability index: 0.751 ± 0.08

PPPPTLPPPLVP
protein stability index: 0.726 ± 0.12

PPPPTSFSPGTL
protein stability index: 0.649 ± 0.043

PPPPTSPTSPEL
protein stability index: 0.692 ± 0.051

PPPRHVPLPPLT
protein stability index: 0.71 ± 0.11

PPPRLDTGAAQP
protein stability index: 0.665 ± 0.0097

PPPRLVPSPPVP
protein stability index: 0.7 ± 0.0039

PPPRPPGPPLPH
protein stability index: 0.702 ± 0.075

PPPRPPPAPLAS
protein stability index: 0.705 ± 0.027

PPPRVPPPVPPL
protein stability index: 0.722 ± 0.047

PPPSDPLPPSVR
protein stability index: 0.7044 ± 0.0067

PPPSPAQIPRPS
protein stability index: 0.722 ± 0.19

PPPSPPHFTSPP
protein stability index: 0.683 ± 0.006

PPPSRSLPPTPP
protein stability index: 0.746 ± 0.084

PPPSSSGHPLHY
protein stability index: 0.714 ± 0.05

PPPSSSLAAPPT
protein stability index: 0.677 ± 0.026

PPPSSSSPPPPR
protein stability index: 0.704 ± 0.039

PPPSYSPSLSLL
protein stability index: 0.63132 ± 0.00041

PPPTPACPPATL
protein stability index: 0.693 ± 0.039

PPPTPPPPRPLL
protein stability index: 0.747 ± 0.048

PPPTPSGPHPAP
protein stability index: 0.672 ± 0.028

PPPTRPPPPPSL
protein stability index: 0.704 ± 0.075

PPPVDLPTRLIP
protein stability index: 0.642 ± 0.0073

PPPYHLTPPPPF
protein stability index: 0.662 ± 0.052

PPQLHVALPHPE
protein stability index: 0.852 ± 0.2

PPQRNFPARPTP
protein stability index: 0.6988 ± 0.0034

PPRARPRLPPGA
protein stability index: 0.606 ± 0.04

PPRHTPTNPPKA
protein stability index: 0.677 ± 0.05

PPRLPPLPPSYP
protein stability index: 0.777 ± 0.14

PPRPPLPPTLPP
protein stability index: 0.6973 ± 0.0026

PPRPPPSPPLPS
protein stability index: 0.663 ± 0.054

PPRPPRPSPPPP
protein stability index: 0.72293 ± 8.1e-05

PPRPRPPLPALP
protein stability index: 0.764 ± 0.11

PPRPRPPPSPYH
protein stability index: 0.667 ± 0.011

PPRPVPRPHPRP
protein stability index: 0.674 ± 0.011

PPRQSHHPNPQH
protein stability index: 0.682 ± 0.038

PPRRPPLAPPPP
protein stability index: 0.693 ± 0.019

PPRSSLNPDLTQ
protein stability index: 0.695 ± 0.1

PPRYDSLFGALF
protein stability index: 0.676 ± 0.066

PPSAPPSPPHPP
protein stability index: 0.612 ± 0.011

PPSFLHPTPRPR
protein stability index: 0.673 ± 0.082

PPSLLPAPQLPP
protein stability index: 0.757 ± 0.066

PPSLLPSPPRLF
protein stability index: 0.667 ± 0.057

PPSLPHLCRLHL
protein stability index: 0.668 ± 0.057

PPSLPLPLPSAP
protein stability index: 0.683 ± 0.015

PPSLVSPSSPPS
protein stability index: 0.708 ± 0.047

PPSPLAPPCSPR
protein stability index: 0.6719 ± 0.0056
